Assay results: the supplement of paper PMC6757056
± gives the standard deviation of the averaged measurements.

B1: library; a variant is named by its letters at N, in order (parent)
chain: GCUGUCACCGGUGUAUUACCCUAGUGGUCGACCGGUCUGAUGAGUCUNNNNNNAGACGAAACAGC

Legend:
[1] = variants of: B1; assay: normalized RNA/DNA level with ligand (relative to sTRSVctl = 100) (log10 (% of sTRSVctl)); ligand: hypoxanthine (xanthine aptamer); higher = less ribozyme self-cleavage, higher mRNA level; settings: ligand concentration (+) RNA-Seq: 5 mM, HEK293T, reporter: mCherry (pCS4076), ligand present: yes
Method in brief: (§1)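 Total RNA, extracted with EDTA 72 h after HEK293T cells were transfected with 4 µg per 6-well well of reporter-linked ribozyme switch library plasmids, was reverse-transcribed, amplified, barcoded and sequenced. Ligand, if used, was added 1 h before transfection. RNA level was derived from RNA reads divided by DNA reads and normalized to a spiked-in non-cleaving sequence or to the top sequences. This was multiplied by 100 and log10-transformed, with the top set of 25 sequences and a ≥100 DNA read minimum.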

[2] = variants of: B1; assay: normalized RNA/DNA level without ligand (relative to sTRSVctl = 100) (log10 (% of sTRSVctl)); ligand: hypoxanthine (xanthine aptamer); higher = less ribozyme self-cleavage, higher mRNA level; settings: HEK293T, reporter: mCherry (pCS4076), ligand present: no
Method in brief: as §1

| Variant | normalized RNA/DNA level with ligand (log10) [1] | normalized RNA/DNA level without ligand (log10) [2] |
| --- | --- | --- |
| GCUGUCACCGGUGUAUUACCCUAGUGGUCGACCGGUCUGAUGAGUCUCGGAGAAGACGAAACAGC [CGGAGA] | 1.93 ± 0.044 | 1.617 ± 0.012 |
| GCUGUCACCGGUGUAUUACCCUAGUGGUCGACCGGUCUGAUGAGUCUCGGAGCAGACGAAACAGC [CGGAGC] | 1.944 ± 0.019 | 1.67 ± 0.046 |
| GCUGUCACCGGUGUAUUACCCUAGUGGUCGACCGGUCUGAUGAGUCUCGGAUAAGACGAAACAGC [CGGAUA] | 1.87 ± 0.041 | 1.51 ± 0.085 |
| GCUGUCACCGGUGUAUUACCCUAGUGGUCGACCGGUCUGAUGAGUCUGGGAUAAGACGAAACAGC [GGGAUA] | 1.95 ± 0.053 | 1.69 ± 0.0074 |
| GCUGUCACCGGUGUAUUACCCUAGUGGUCGACCGGUCUGAUGAGUCUUGGAUAAGACGAAACAGC [UGGAUA] | 1.96 ± 0.042 | 1.84 ± 0.02 |
| GCUGUCACCGGUGUAUUACCCUAGUGGUCGACCGGUCUGAUGAGUCUCGGAUCAGACGAAACAGC [CGGAUC] | 2.018 ± 0.0066 | 1.92 ± 0.028 |
| GCUGUCACCGGUGUAUUACCCUAGUGGUCGACCGGUCUGAUGAGUCUGGGAUCAGACGAAACAGC [GGGAUC] | 1.94 ± 0.075 | 1.861 ± 0.018 |
| GCUGUCACCGGUGUAUUACCCUAGUGGUCGACCGGUCUGAUGAGUCUUGGAUCAGACGAAACAGC [UGGAUC] | 1.99 ± 0.04 | 1.95 ± 0.027 |
| GCUGUCACCGGUGUAUUACCCUAGUGGUCGACCGGUCUGAUGAGUCUAGGAUCAGACGAAACAGC [AGGAUC] | 1.99 ± 0.046 | 1.944 ± 0.013 |
| GCUGUCACCGGUGUAUUACCCUAGUGGUCGACCGGUCUGAUGAGUCUCGGAUGAGACGAAACAGC [CGGAUG] | 1.993 ± 0.011 | 1.75 ± 0.028 |
| GCUGUCACCGGUGUAUUACCCUAGUGGUCGACCGGUCUGAUGAGUCUGGGAUUAGACGAAACAGC [GGGAUU] | 1.9914 ± 0.00078 | 1.817 ± 0.014 |
| GCUGUCACCGGUGUAUUACCCUAGUGGUCGACCGGUCUGAUGAGUCUUGGAUUAGACGAAACAGC [UGGAUU] | 1.97 ± 0.021 | 1.824 ± 0.0038 |
| GCUGUCACCGGUGUAUUACCCUAGUGGUCGACCGGUCUGAUGAGUCUAGGAUUAGACGAAACAGC [AGGAUU] | 1.934 ± 0.0076 | 1.83 ± 0.075 |
| GCUGUCACCGGUGUAUUACCCUAGUGGUCGACCGGUCUGAUGAGUCUCGGCAAAGACGAAACAGC [CGGCAA] | 1.88 ± 0.024 | 1.529 ± 0.011 |
| GCUGUCACCGGUGUAUUACCCUAGUGGUCGACCGGUCUGAUGAGUCUUGGCAAAGACGAAACAGC [UGGCAA] | 1.917 ± 0.015 | 1.77 ± 0.03 |
| GCUGUCACCGGUGUAUUACCCUAGUGGUCGACCGGUCUGAUGAGUCUAGGCAAAGACGAAACAGC [AGGCAA] | 1.886 ± 0.0036 | 1.74 ± 0.036 |
| GCUGUCACCGGUGUAUUACCCUAGUGGUCGACCGGUCUGAUGAGUCUCGGCACAGACGAAACAGC [CGGCAC] | 1.923 ± 0.016 | 1.733 ± 0.0076 |
| GCUGUCACCGGUGUAUUACCCUAGUGGUCGACCGGUCUGAUGAGUCUGGGCACAGACGAAACAGC [GGGCAC] | 1.9407 ± 0.0014 | 1.879 ± 0.012 |
| GCUGUCACCGGUGUAUUACCCUAGUGGUCGACCGGUCUGAUGAGUCUUGGCACAGACGAAACAGC [UGGCAC] | 2 ± 0.034 | 1.913 ± 0.019 |
| GCUGUCACCGGUGUAUUACCCUAGUGGUCGACCGGUCUGAUGAGUCUAGGCACAGACGAAACAGC [AGGCAC] | 1.94 ± 0.021 | 1.83 ± 0.042 |
| GCUGUCACCGGUGUAUUACCCUAGUGGUCGACCGGUCUGAUGAGUCUCGGCCAAGACGAAACAGC [CGGCCA] | 1.96 ± 0.056 | 1.95 ± 0.027 |
